± gives the standard deviation of the averaged measurements.
What follows are sequences tested on Saccharomyces cerevisiae (assay: protein stability index of tFT-peptide fusion (C-terminal peptide) (PSI (0-1 scale)); higher = more stable (slower turnover)). Conditions: genetic background: wild type; temperature: 30 C.
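Further: PSI is a weighted mean of sequencing reads over stability bins, variants kept only with over 10 reads, mCherry proximal and sfGFP distal, peptide attached via GGGS linker.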

Row | Sequence | protein stability index
1 | PPRPRSARLFLR | 0.728 ± 0.05
2 | PPRRPPPPPPLP | 0.7168 ± 0.0045
3 | PPRVVPDISTSL | 0.699 ± 0.039
4 | PPSATPPHPPPS | 0.666 ± 0.052
5 | PPSGSFLFSVHP | 0.734 ± 0.016
6 | PPSLFRFPPPPR | 0.709 ± 0.074
7 | PPSLPPHASPTP | 0.762 ± 0.079
8 | PPSNSFHSSIPY | 0.678 ± 0.02
9 | PPSPAFSSSLPP | 0.635 ± 0.025
10 | PPSPAPHATARP | 0.662 ± 0.062
11 | PPSPFHPPPPER | 0.551 ± 0.013
12 | PPSPPILPPRPP | 0.687 ± 0.015
13 | PPSPPPPSRPIH | 0.776 ± 0.021
14 | PPSPPPPYPAPP | 0.679 ± 0.015
15 | PPSPPRPHFPSL | 0.739 ± 0.042
16 | PPSPRPVPPPCH | 0.705 ± 0.072
17 | PPSPSFLPPPPP | 0.676 ± 0.024
18 | PPSQLPPPPASD | 0.746 ± 0.2
19 | PPSSGPPSPSSL | 0.578 ± 0.095
20 | PPSSPPHSRRHG | 0.664 ± 0.055
21 | PPSVPSRLSHVL | 0.69 ± 0.034
22 | PPTCRLQPYSRN | 0.759 ± 0.013
23 | PPTLVPPFPTKV | 0.742 ± 0.064
24 | PPTPPPPLPSSF | 0.77 ± 0.075
25 | PPTPRPHPPSRP | 0.758 ± 0.022
26 | PPTPSAPHRTRI | 0.732 ± 0.026

Row | Sequence | protein stability index
27 | PPTPSPAPSPAP | 0.601 ± 0.011
28 | PPTSHHHYHRQQ | 0.695 ± 0.053
29 | PPVGPPFPPLPH | 0.784 ± 0.13
30 | PPVLAPCLPLTG | 0.681 ± 0.067
31 | PPVLHSSEPPDS | 0.707 ± 0.024
32 | PPWPPLLPRPSP | 0.666 ± 0.03
33 | PQLCSPLITIGV | 0.5961 ± 0.0032
34 | PQLLGWCVGPCR | 0.694 ± 0.024
35 | PQPLNTLRLTSS | 0.671 ± 0.034
36 | PQSVMFFGAPVW | 0.687 ± 0.034
37 | PQTPPPLLPPSL | 0.671 ± 0.013
38 | PQTVAHPPPPPR | 0.688 ± 0.04
39 | PRAGPLAALSLS | 0.695 ± 0.026
40 | PRCIELASMRRP | 0.681 ± 0.068
41 | PRCVRFPPVTLL | 0.7393 ± 0.0036
42 | PRDQPPDGHASP | 0.6717 ± 0.002
43 | PREVGVYQQIRD | 0.63 ± 0.019
44 | PRFFCSGSSPLR | 0.721 ± 0.026
45 | PRFSFSGLPLPP | 0.681 ± 0.11
46 | PRFSLFSTDHYY | 0.679 ± 0.16
47 | PRGFVHLPPPYT | 0.756 ± 0.12
48 | PRGHLDEFCVVL | 0.705 ± 0.019
49 | PRGHPPIPPPLP | 0.69 ± 0.035
50 | PRGPPTPPLTSP | 0.669 ± 0.043
51 | PRGWAGGQITPR | 0.686 ± 0.03
52 | PRGYSASPNLTS | 0.716 ± 0.023

Row | Sequence | protein stability index
53 | PRIIPRLARPQS | 0.69 ± 0.014
54 | PRIKWKIQIIKK | 0.668 ± 0.011
55 | PRLPPPPTPPLP | 0.649 ± 0.16
56 | PRLPRRTTTIHG | 0.71 ± 0.035
57 | PRLSPPRSPSPP | 0.665 ± 0.0091
58 | PRLSSPAATSPP | 0.709 ± 0.012
59 | PRPAPHTGPSPG | 0.613 ± 0.029
60 | PRPCASALPPHP | 0.712 ± 0.051
61 | PRPCLPPDPPPS | 0.654 ± 0.0071
62 | PRPDSRTRLPRP | 0.661 ± 0.019
63 | PRPGSTTPPAYR | 0.7163 ± 0.0053
64 | PRPLTRPVPPLS | 0.68 ± 0.13
65 | PRPNGLSTDDLE | 0.729 ± 0.056
66 | PRPPANILPSAP | 0.713 ± 0.07
67 | PRPPHLPPPVPS | 0.7299 ± 0.0016
68 | PRPPLPLFPSSL | 0.723 ± 0.048
69 | PRPPPHPPPSPL | 0.50931 ± 0.00043
70 | PRPPPLPPPLPL | 0.5773 ± 0.0032
71 | PRPRLPVLPSPS | 0.641 ± 0.098
72 | PRPRPSPLPPPS | 0.751 ± 0.13
73 | PRPSPFIGLPFP | 0.749 ± 0.067
74 | PRQAPPSLPSPP | 0.697 ± 0.076
75 | PRRFPCRLRLGF | 0.702 ± 0.074
76 | PRSPARPPFPTP | 0.6835 ± 0.0049
77 | PRSPPCPLPPPL | 0.65 ± 0.11
78 | PRSRSHPLCSAP | 0.813 ± 0.062

Row | Sequence | protein stability index
79 | PRSSVPATPHRR | 0.72 ± 0.031
80 | PRSTWPFRLFVR | 0.531 ± 0.053
81 | PRTAAFDSLLPT | 0.688 ± 0.036
82 | PRVRSPLLSPPQ | 0.606 ± 0.017
83 | PRYSVRGQPRET | 0.728 ± 0.0061
84 | PSAFQCQWKTSA | 0.6383 ± 0.0014
85 | PSAPFPPVYPLH | 0.687 ± 0.017
86 | PSARASSRTAPS | 0.661 ± 0.015
87 | PSASYLPCRSKL | 0.7474 ± 0.0046
88 | PSCPAPPAARPL | 0.74 ± 0.11
89 | PSCYDPCSPPPH | 0.723 ± 0.047
90 | PSDGCSPSSTGN | 0.696 ± 0.076
91 | PSEFGAGYVMGG | 0.71 ± 0.017
92 | PSELGAGYVMGG | 0.6936 ± 0.0034
93 | PSFHASSLSWFS | 0.745 ± 0.039
94 | PSFLLPPLPPPT | 0.718 ± 0.0086
95 | PSHPPRHCPPAA | 0.6628 ± 0.0024
96 | PSHQRVRGLPSL | 0.697 ± 0.041
97 | PSLLFHPAPFFP | 0.756 ± 0.085
98 | PSLLHPPLPTSP | 0.657 ± 0.036
99 | PSLLSMHSFSLC | 0.68 ± 0.014
100 | PSLPFPPSPPPC | 0.7067 ± 0.0022
101 | PSLPLSPLSDSR | 0.717 ± 0.032

Source: the supplement of paper PMC10724198
